Source: patent US20080274978A1 (POSTECH FOUNDATION, published 2008)
Where no end group is shown, it is not given here. [ ]: non-standard residue; d: D form.

T1: Formyl peptide receptor like 1 (FPRL1) (human, UniProt P25090 1-351)
T1 sequence (looked up): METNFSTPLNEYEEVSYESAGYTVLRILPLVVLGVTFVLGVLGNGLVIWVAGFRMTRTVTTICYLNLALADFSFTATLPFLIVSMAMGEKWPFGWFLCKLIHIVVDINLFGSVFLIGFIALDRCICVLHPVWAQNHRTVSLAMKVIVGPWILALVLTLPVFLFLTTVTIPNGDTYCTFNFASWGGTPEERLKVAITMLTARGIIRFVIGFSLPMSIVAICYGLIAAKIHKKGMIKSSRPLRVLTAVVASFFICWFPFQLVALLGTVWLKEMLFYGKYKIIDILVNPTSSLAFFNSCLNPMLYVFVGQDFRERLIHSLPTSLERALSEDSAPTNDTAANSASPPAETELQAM

B1: WWWWWw (peptide)
peptide: WWWWW[dW]
B2: WWWWMR (peptide)
peptide: WWWWMR
B3: WWWW (peptide)
peptide: WWWW
B4: WWWWWR (peptide)
peptide: WWWWWR
B5: WWWWRW (peptide)
peptide: WWWWRW
B6: WWWRWW (peptide)
peptide: WWWRWW
B7: RWWM (peptide)
peptide: RWWM
B8: WWRWWM (peptide)
peptide: WWRWWM
B9: RWWW (peptide)
peptide: RWWW
B10: WWRWWW (peptide)
peptide: WWRWWW
B11: wWRWWM (peptide)
peptide: [dW]WRWWM
modifications: not fully specified; printed as wWRWWM
B12: wWRWWW (peptide)
peptide: [dW]WRWWW
B13: RWWw (peptide)
peptide: RWW[dW]
B14: WRWW (peptide)
peptide: WRWW
B15: WWWM (peptide)
peptide: WWWM
B16: Trp-Arg-Trp-Trp-Trp-Trp-CONH2 (WRWWWW, WRW^4) (peptide)
peptide: WRWWWW-NH2
B17: WRW (peptide)
peptide: WRW
B18: LRWWWW (peptide)
peptide: LRWWWW
B19: LWWWWW (peptide)
peptide: LWWWWW
B20: WWWWWW (peptide)
peptide: WWWWWW
B21: WWWWWM (peptide)
peptide: WWWWWM
B22: WRRWWW (peptide)
peptide: WRRWWW
B23: WWWw (peptide)
peptide: WWW[dW]
B24: Arg-Arg-Trp-Trp-Trp-Trp-CONH2 (RRWWWW, RRW^4) (peptide)
peptide: RRWWWW-NH2
B25: Arg-His-Trp-Trp-Trp-Trp-CONH2 (RHWWWW, RHW^4) (peptide)
peptide: RHWWWW-NH2
B26: Asp-Arg-Trp-Trp-Trp-Trp-CONH2 (DRWWWW, DRW^4) (peptide)
peptide: DRWWWW-NH2

These binders were tested against T1, Formyl peptide receptor like 1 (FPRL1) (assay: cell-based or functional assay).

Ca^2+ (FPRL1) IC50 [nM]	Binder
> 10000	B1
5700	B2
860	B3
220	B4
2700	B5
470	B6
650	B7
83	B8
600	B9
58	B10
8.2	B11
110	B12
> 10000	B13
> 10000	B14
5900	B15
1000	B16
> 10000	B17
1100	B18
500	B19
> 10000	B20
130	B21
> 10000	B22
> 10000	B23

Each binder was assayed against T1, Formyl peptide receptor like 1 (FPRL1) (assay: displacement of 125I-WKYMVm (50 pM) from FPRL1-expressing RBL-2H3 cells).
Protocol: Ligand binding analysis was performed as previously described (24). Briefly, FPR-expressing RBL-2H3 cells were seeded at 1×10⁵ cells per well into a 24 well plate and cultured overnight. […] The samples were then washed 5 times with ice-cold binding buffer, and 200 μl of lysis buffer (20 mM Tris, pH 7.5, 1% Triton X-100) was added to each well. After 20 min at room temperature, the lysates were collected and counted using a γ-ray counter (24).

IC50 [nM]	Binder
2400	B24
3200	B25
230	B16
3400	B26

Molecular target: T1, Formyl peptide receptor like 1 (FPRL1)
Test: cell-based or functional assay
Remark: another data set of the same source

antagonistic activity on intracellular calcium concentration increase, relative to WRWWWW (SEQ ID NO:4) [times]	Binder
~100	B11
